Reference: IntAct's records for PubMed 22705394

B1: Ras-related protein Rab-21 (Homo sapiens), Q9UL25 (parent)
chain: MAAAGGGGGGAAAAGRAYSFKVVLLGEGCVGKTSLVLRYCENKFNDKHITTLQASFLTKKLNIGGKRVNLAIWDTAGQERFHALGPIYYRDSNGAILVYDITDEDSFQKVKNWVKELRKMLGNEICLCIVGNKIDLEKERHVSIQEAESYAESVGAKHYHTSAKQNKGIEELFLDLCKRMIETAQVDERAKGNGSSQPGTARRGVQIIDDEPQAQTSGGGCCSSG

Variants of: B1
Conditions: with macf1_human MACF1, Q9UPN3
MAAAGGGGGGAAAAGRAYSFKVVLLGEGCVGKNSLVLRYCENKFNDKHITTLQASFLTKKLNIGGKRVNLAIWDTAGQERFHALGPIYYRDSNGAILVYDITDEDSFQKVKNWVKELRKMLGNEICLCIVGNKIDLEKERHVSIQEAESYAESVGAKHYHTSAKQNKGIEELFLDLCKRMIETAQVDERAKGNGSSQPGTARRGVQIIDDEPQAQTSGGGCCSSG [T33N] was tested, and the “effect of a mutation on the interaction” value was “decreasing interaction”.

Variants of: B1
Conditions: with MACF1, Q9UPN3-1
MAAAGGGGGGAAAAGRAYSFKVVLLGEGCVGKNSLVLRYCENKFNDKHITTLQASFLTKKLNIGGKRVNLAIWDTAGQERFHALGPIYYRDSNGAILVYDITDEDSFQKVKNWVKELRKMLGNEICLCIVGNKIDLEKERHVSIQEAESYAESVGAKHYHTSAKQNKGIEELFLDLCKRMIETAQVDERAKGNGSSQPGTARRGVQIIDDEPQAQTSGGGCCSSG [T33N] was tested, and the “effect of a mutation on the interaction” value was “decreasing interaction”.
